Experimental data from IntAct's records for PubMed 17289029.

B1: Zinc finger protein GLIS2 (Homo sapiens), Q9BZE0 (parent)
chain: MHSLDEPLDLKLSITKLRAAREKRERTLGVVRPRALHRELGLVDDSPTPGSPGSPPSGFLLNSKFPEKVEGRFSAAPLVDLSLSPPSGLDSPNGSSSLSPERQGNGDLPPVPSASDFQPLRYLDGVPSSFQFFLPLGSGGALHLPASSFLTPPKDKCLSPDLPLPKQLVCRWAKCNQLFELLQDLVDHVNDYHVKPEKDAGYCCHWEGCARHGRGFNARYKMLIHIRTHTNEKPHRCPTCSKSFSRLENLKIHNRSHTGEKPYVCPYEGCNKRYSNSSDRFKHTRTHYVDKPYYCKMPGCHKRYTDPSSLRKHIKAHGHFVSHEQQELLQLRPPPKPPLPAPDGGPYVSGAQIIIPNPAALFGGPGLPGLPLPLAPGPLDLSALACGNGGGSGGGGGMGPGLPGPVLPLNLAKNPLLPSPFGAGGLGLPVVSLLAGAAGGKAEGEKGRGSVPTRALGMEGHKTPLERTESSCSRPSPDGLPLLPGTVLDLSTGVNSAASSPEALAPGWVVIPPGSVLLKPAVVN

Variants of: B1
Conditions: with ctnb1_human CTNNB1, P35222
ctnb1_human CTNNB1, P35222, sequence (P35222 whole entry): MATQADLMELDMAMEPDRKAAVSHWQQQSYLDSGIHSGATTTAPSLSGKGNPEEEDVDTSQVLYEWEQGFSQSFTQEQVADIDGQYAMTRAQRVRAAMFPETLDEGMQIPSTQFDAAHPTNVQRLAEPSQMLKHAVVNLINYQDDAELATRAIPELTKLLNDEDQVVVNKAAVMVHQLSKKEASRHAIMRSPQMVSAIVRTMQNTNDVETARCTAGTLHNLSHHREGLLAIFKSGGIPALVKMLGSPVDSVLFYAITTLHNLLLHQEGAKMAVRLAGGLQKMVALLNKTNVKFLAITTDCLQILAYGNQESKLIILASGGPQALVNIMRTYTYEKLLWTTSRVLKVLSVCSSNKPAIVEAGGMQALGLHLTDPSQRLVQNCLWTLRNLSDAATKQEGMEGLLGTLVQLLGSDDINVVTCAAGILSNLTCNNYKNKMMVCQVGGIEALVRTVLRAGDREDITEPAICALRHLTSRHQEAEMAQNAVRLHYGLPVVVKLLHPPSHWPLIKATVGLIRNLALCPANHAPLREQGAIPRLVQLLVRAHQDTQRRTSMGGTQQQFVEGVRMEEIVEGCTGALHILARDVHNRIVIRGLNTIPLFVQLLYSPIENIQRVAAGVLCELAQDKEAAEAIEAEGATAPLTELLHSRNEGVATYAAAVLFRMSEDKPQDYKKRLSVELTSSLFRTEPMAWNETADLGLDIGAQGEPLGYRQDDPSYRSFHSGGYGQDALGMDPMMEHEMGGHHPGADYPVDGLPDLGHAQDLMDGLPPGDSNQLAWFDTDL
In the case of C175A, the “effect of a mutation on the interaction” value is reported as “disrupting interaction”.
